US20100008928A1 (Takeda / Millennium, published 2010)

T1: nectin-2 Ig1 domain-deficient protein (human, UniProt Q92692 32-538)
T1 construct: transient in CHO-K1; also called delta-Ig1; Nectin-2ΔIg1
T1 sequence: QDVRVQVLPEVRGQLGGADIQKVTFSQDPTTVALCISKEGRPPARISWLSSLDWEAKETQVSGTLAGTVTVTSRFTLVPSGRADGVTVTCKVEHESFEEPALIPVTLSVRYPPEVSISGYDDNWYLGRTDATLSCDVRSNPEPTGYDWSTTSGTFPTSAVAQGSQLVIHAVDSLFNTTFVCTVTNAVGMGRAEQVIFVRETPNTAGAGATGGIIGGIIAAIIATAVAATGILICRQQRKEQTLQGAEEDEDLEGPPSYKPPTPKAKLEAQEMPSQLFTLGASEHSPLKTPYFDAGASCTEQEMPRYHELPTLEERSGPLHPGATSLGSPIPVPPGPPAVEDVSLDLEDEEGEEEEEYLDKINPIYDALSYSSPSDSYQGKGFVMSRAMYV

T2: nectin-2 Ig2 domain-deficient protein (human, UniProt Q92692 32-538)
T2 construct: transient in CHO-K1; also called delta-Ig2; Nectin-2ΔIg2
T2 sequence: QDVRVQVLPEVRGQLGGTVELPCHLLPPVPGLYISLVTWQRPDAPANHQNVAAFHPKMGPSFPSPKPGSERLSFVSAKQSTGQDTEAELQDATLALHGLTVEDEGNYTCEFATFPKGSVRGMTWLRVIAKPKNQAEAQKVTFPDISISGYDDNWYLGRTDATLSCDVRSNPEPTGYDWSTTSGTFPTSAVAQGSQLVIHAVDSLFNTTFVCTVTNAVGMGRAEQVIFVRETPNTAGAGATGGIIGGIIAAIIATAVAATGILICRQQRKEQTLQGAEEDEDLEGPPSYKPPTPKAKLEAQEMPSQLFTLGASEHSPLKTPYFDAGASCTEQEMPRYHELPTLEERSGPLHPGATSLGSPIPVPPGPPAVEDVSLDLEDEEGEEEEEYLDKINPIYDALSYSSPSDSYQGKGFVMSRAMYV

T3: human nectin-1 protein (human, UniProt Q15223 31-517)
T3 construct: transient in CHO-K1 from pCMV-Tag4-Nectin-1
T3 sequence: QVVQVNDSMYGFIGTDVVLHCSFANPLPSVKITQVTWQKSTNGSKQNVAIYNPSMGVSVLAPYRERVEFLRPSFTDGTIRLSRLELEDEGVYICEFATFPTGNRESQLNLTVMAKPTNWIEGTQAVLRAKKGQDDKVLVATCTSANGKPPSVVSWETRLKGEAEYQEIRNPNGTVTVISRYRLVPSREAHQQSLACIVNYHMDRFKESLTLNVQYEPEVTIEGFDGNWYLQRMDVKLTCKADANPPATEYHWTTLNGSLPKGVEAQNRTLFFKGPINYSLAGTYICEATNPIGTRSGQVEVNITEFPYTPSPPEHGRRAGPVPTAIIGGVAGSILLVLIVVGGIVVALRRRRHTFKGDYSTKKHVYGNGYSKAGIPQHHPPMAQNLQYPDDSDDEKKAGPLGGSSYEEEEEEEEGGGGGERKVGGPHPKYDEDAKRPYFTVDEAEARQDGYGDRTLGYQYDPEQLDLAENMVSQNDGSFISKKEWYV

T4: human nectin-4 protein (human, UniProt Q96NY8 32-510)
T4 construct: transient in CHO-K1 from pCMV-Tag4-Nectin-4
T4 sequence: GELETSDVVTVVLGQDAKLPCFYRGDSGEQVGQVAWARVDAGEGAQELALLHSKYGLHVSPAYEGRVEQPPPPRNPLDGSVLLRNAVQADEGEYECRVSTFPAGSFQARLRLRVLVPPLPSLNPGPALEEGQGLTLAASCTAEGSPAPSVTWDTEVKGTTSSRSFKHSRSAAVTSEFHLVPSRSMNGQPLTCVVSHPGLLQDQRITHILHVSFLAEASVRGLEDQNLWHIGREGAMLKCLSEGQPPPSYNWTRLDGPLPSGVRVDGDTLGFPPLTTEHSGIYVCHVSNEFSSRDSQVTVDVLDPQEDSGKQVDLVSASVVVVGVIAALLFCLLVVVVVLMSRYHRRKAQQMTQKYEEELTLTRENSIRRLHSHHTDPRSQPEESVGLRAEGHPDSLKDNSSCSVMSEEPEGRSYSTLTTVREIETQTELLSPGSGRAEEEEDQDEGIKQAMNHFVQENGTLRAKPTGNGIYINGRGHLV

T5: human Nec1-5 protein (human, UniProt P15151 21-417)
T5 construct: transient in CHO-K1 from pCMV-Tag4-Nec1-5; also called Necl-5
T5 sequence: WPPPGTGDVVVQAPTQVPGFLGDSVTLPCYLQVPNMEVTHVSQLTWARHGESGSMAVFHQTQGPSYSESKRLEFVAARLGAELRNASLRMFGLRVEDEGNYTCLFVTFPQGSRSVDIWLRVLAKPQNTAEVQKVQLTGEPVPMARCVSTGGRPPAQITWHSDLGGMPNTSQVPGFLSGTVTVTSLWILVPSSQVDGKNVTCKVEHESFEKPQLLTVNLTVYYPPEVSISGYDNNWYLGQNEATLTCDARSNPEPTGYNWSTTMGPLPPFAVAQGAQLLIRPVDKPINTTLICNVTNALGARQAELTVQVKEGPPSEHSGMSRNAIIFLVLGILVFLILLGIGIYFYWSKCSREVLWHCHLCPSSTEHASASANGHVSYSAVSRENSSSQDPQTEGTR


What was measured:
Assay in all cases: FCM
[1] = biological target: T1, nectin-2 Ig1 domain-deficient protein
Protocol: (§1) After 200 μL of FCM buffer was added to each well and washed once by centrifugal operation, 50 μL each of Alexa488-labeled secondary antibody diluted in FCM buffer to 10 μg/mL was added to and mixed therewith, and the mixture was then reacted on ice for an hour. The Alexa488-labeled secondary antibody used was Alexa Fluor488 goat anti-human IgG (H+L) for the human antibodies and Alexa Fluor488 goat anti-rabbit IgG (H+L) (Invitrogen) for the rabbit antibody. The cells in each well were washed twice with FCM buffer and then resuspended in 250 μL of FCM buffer. Using the flow cytometer MPL500 (BECKMAN COULTER), the fluorescence intensity of stained cells was measured to determine the ratio of the median value of fluorescence intensities of the respective antibodies in the primary antibody group to the median value of fluorescence intensities in the negative control group.

[2] = biological target: T2, nectin-2 Ig2 domain-deficient protein
Protocol: as §1

human nectin-1 protein = biological target: T3, human nectin-1 protein
Protocol: (§2) Specifically, CHO-K1 cell line was incubated in a T75 flask charged with a medium mixture of DMEM and F-12 in equivalent volumes (Invitrogen) supplmented with 10% FBS (JRH) at 37° C. for 1 to 2 days in a 5% carbon dioxide gas flow. […] Four hours after the transfection, the medium for the CHO-K1 cells was exchanged with a fresh aliquot of the medium described above, followed by incubation for further 2 days. These cells were washed twice with D-PBS, detached by Cell Dissociation Buffer, enzyme-free, PBS-based (Invitrogen) and resuspended in D-PBS (−) containing 1% FBS and 0.1% sodium azide (hereinafter referred to as FCM buffer) at a density of 5×10⁶ cells/mL. […] After 200 μL of FCM buffer was added to each well and washed once by centrifugal operation, 50 μL/well of Alexa488-labeled secondary antibody diluted in FCM buffer to 10 μg/mL was added for suspension, which was then reacted on ice for an hour.

human nectin-4 protein = biological target: T4, human nectin-4 protein
Protocol: as §2

human Nec1-5 protein = biological target: T5, human Nec1-5 protein
Protocol: as §2

Row | Binder | median fluorescence ratio [1] | binding result [2] | binding result (human nectin-1 protein) | binding result (human nectin-4 protein) | binding result (human Nec1-5 protein)
1 | Nec1-554-1 SP3 (antibody, V domains shown, also called antibody fraction (SP3)) VH: EVQLVESGGGLVKPGGSLRLSCAASGFTFSSYNMNWVRQAPGKGLEWVSSISSSSSYIYYADSVKGRFTISRDNAKNSLYLQMNSLRAEDTAVYYCARDYYGSGTYYLFDYWGQGTLVTVSS VL: EIVLTQSPDFQSVTPKEKVTITCRASQSIGSSLHWYQQKPDQSPKLLIKYASQSFSGVPSRFSGSGSGTDFTLTINSLEAEDAAAYYCHQSRSLPITFGQGTRLEIK | 4.3 | no binding (tested: ratio <2 = no reactivity; 6 µg/mL) | – | – | –
2 | Nec1-803-2 (antibody, human IgG1, V domains shown) VH: QVQLQESGPGLVKPSETLSLTCTVSGGSISSYYWTWIRQPPGKGLEWIGYIYYSGSTNSNPSLKSRVTISVDTSKNQFSLKLSSVTAADTAVYYCTRDPGEDYNYGMDVWGQGTTVTVSS VL: AIQLTQSPSSLSASVGDRVTITCRASQGISSALAWYQQKPGKAPKLLIYDASSLESGVPSRFSGSGSGTDFTLTISSLQPEDFATYYCQQFNSYPRTFGQGTKVEIK | – | – | no binding (tested: 6 µg/mL) | no binding (tested: 6 µg/mL) | no binding (tested: 6 µg/mL)
3 | Nec1-834-1 (antibody, human IgG1, V domains shown, human IgG1/k from hybridoma FERM BP-10428) VH: QVQLQESGPGLVKPSETLSLTCTVSSASISSYYWSWIRQPPGKGLEWIGYIYYSGSTNYNPSLKSRVTISIDTSKNQFSLKLSSVTAADTAVYYCARDAGEDYSYGMDVWGQGTTVTVSS VL: AIQLTQSPSSLSASVGDRVTITCRASQGISSALAWYQQKPGKAPKLLIYDASSLESGVPSRFSGSGSGTDFTLTISSLQPEDFATYYCQQFNSYRTFGQGTKVEIK | – | – | no binding (tested: 6 µg/mL) | no binding (tested: 6 µg/mL) | no binding (tested: 6 µg/mL)
